Results: patent publication US20240228656A1
Each block holds one binder with its values, some of them ahead of it.

Molecular target: cynomolgus EpCAM protein (cynomolgus)
Assay: colorimetric ELISA

Chain of cynomolgus EpCAM protein (cynomolgus) (Q1WER1 27-265 limits assumed): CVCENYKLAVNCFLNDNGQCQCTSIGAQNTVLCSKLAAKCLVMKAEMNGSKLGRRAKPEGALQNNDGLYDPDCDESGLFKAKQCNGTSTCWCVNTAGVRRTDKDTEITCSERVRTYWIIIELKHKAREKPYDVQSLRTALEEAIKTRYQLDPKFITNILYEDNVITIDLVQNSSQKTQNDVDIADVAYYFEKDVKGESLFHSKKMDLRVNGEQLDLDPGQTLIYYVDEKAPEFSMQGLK

Cynomolgus EpCAM/Control: 2
ELISA absorbance: 0.2 absorbance
B1: EPL159 (VHH)
VHH: QVQLQESGGGLVQAGGSLRLSCAASGFAFGNHWMYWYRQAPGRGRELVASISSGGSTNYVDSVKGRFTISRDNARNTVYLQMYSLKPEDTAVYYCGTSDNWGQGTQVTVSS

Cynomolgus EpCAM/Control: 2
ELISA absorbance: 0.4 absorbance
B2: EPL145 (VHH)
VHH: QVQLQESGGGLVQAGGSLRLSCAASGFIFRAASMGWFRQSPGNERELVATVSSGGFTNYADSVKGRFTISRDNAKNTVYLQMNSLKPEDTAVYFCGATFVRSDGHHTIYGQGTQVTVSS
